Source: paper PMC12428694, “A New β-Galactosidase from Pseudomonas tritici SWRI145 for Efficient Bioproduction of Galactooligosaccharides” (Foods, 2025)

Test system: O=[N+]([O-])c1ccccc1O[C@@H]1O[C@H](CO)[C@H](O)[C@H](O)[C@H]1O
Experiment: purified protein
Assay type: biochemical, Pseudomonas tritici
Settings: 50 mM HEPES pH 7.5, 50 °C, 5 min, 0.3-60 mM ONPG, 1 mM Mg2+ probably present

## Pstr β-galactosidase (Pseudomonas tritici)
  Km: 3000 µM
  kcat: 643.98 s⁻¹
